Reference: patent US20250074980A1 (BRIGHAM AND WOMEN S HOSPITAL, published 2025)

B1: CP08H03/Vκ8 S29A (antibody, IgG4, V domains shown)
VH: EVQLLESGGGLVQPGGSLRLSCAASGFIFSSHGMSWVRQAPGKGLEWVATISSGGTYTYYPDSVKGRFTISRDNSKNTLYLQMNSLKAEDTAMYYCARHDFDYFPYWFAHWGQGTLVTVSS
VL: EIVLTQSPATLSLSPGERATLSCRANSAVSYMYWYQQKPGQAPRPWIYLTSNRATGVPARFSGSGSGTDYTLTISSLEPEDFAVYYCQQWSSNPPTFGQGTKLEIK
notes: IgG4 (S241P), kappa; also called CP08_H03/Parent VL; CP08_H03/Parental
B2: chimeric antibody VH0/Vκ0 (antibody, IgG4, V domains shown)
VH: EVQLVESGGDLVKPGGSLKLACAASGFIFSSHGMSWVRQTPDKRLEWVATISSGGTYTYYPDSVKGRFTISRDNDKNTLYLQMNSLKSEDTAMYYCARHDFDYDAAWFAYWGQGTLVTVSS
VL: QIVLTQSPALMSASPGVKVTMTCSANSSVSYMYWYRQKPRSSPKPWIYLTSNLASGVPARFSGSGSGTSYSLTISSMEAEDAATYYCQQWSSNPPTFGSGTKLEIK
notes: IgG4 (S241P), kappa; also called VH0/Vκ0 (control); Chimeric VH0/Vκ0

Key:
[1] = target: T1, GST-CEACAM1 (human, UniProt P13688 35-141, limits assumed); assay: competition ELISA: binding of human CEACAM1-GST (37.5 µg/ml) to human TIM-3 IgV domain tagless protein (3 µg/ml), anti-GST detection, OD 450 nm
T1 construct: also called human CEACAM1-GST protein
T1 sequence: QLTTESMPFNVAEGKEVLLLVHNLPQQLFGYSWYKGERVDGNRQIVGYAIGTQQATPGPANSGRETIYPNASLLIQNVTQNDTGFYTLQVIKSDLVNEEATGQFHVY
Description: The ability of the CEACAM1 antibodies to reduce the binding of CEACAM1 to TIM-3 was examined. […] In addition, human IgG4 antibody was used as a control (0-1000 nM). Goat polyclonal anti-GST-HSP antibody from Abcam (1:2000) was used and assays were developed by addition of TMB solution (Life technologies). OD values were read at 450 nm on a plate reader. Data was plotted in a Graphpad and best-fit IC-50 values were determined.

[2] = target: T2, CEACAM5 on transfected HeLa cells (human, UniProt P06731 35-685); assay: flow cytometry, transfected HeLa
T2 construct: whole, on cells; also called HeLa-CEACAM5; HeLa C5
T2 sequence (looked up): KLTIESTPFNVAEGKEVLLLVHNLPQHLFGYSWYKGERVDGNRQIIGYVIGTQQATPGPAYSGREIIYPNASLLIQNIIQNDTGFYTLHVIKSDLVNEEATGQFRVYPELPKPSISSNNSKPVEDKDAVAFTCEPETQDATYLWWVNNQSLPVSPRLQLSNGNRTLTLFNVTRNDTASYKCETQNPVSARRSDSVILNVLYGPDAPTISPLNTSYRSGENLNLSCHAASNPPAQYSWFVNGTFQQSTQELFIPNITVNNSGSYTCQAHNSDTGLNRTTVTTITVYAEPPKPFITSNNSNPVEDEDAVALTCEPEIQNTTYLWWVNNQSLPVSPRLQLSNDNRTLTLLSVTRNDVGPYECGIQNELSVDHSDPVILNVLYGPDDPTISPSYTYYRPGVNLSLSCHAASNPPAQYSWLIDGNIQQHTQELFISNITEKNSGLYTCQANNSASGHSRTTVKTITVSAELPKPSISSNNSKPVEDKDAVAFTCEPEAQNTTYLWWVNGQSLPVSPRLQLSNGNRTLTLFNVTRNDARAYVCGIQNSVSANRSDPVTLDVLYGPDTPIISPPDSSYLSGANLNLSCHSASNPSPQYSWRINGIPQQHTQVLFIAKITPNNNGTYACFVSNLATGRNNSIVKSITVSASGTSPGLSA

[3] = target: T3, CEACAM1 on transfected HeLa cells (human, UniProt P13688 35-526); assay: flow cytometry, transfected HeLa
T3 construct: also called HeLa-CEACAM1; HeLa C1
T3 sequence: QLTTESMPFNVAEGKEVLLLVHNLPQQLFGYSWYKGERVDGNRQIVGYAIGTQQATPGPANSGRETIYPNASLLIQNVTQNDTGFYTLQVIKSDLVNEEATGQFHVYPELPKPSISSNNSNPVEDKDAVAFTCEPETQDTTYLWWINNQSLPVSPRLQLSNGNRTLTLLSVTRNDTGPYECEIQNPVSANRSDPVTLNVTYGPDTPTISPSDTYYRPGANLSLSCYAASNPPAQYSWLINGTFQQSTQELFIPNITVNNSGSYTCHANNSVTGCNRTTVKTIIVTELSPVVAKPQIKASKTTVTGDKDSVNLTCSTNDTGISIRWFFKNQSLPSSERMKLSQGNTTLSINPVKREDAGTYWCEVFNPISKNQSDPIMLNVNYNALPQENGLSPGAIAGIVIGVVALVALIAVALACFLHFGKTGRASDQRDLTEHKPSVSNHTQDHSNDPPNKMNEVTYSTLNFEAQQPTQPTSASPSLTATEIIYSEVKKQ

[4] = target: T4, CEACAM6 on transfected HeLa cells (human, UniProt P40199 35-320); assay: flow cytometry, transfected HeLa
T4 construct: whole, on cells; also called HeLa-CEACAM6; HeLa C6
T4 sequence (looked up): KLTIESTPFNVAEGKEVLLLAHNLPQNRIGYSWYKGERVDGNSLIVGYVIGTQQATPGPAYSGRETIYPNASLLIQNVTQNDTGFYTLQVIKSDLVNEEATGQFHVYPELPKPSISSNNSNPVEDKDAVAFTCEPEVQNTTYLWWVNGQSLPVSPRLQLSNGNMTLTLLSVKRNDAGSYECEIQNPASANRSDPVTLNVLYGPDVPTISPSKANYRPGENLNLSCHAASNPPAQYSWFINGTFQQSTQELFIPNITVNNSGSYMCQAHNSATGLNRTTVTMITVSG

[5] = target: T5, CEACAM3 on transfected HeLa cells (human, UniProt P40198 35-252); assay: flow cytometry, transfected HeLa
T5 construct: whole, on cells; also called HeLa-CEACAM3; HeLa C3
T5 sequence (looked up): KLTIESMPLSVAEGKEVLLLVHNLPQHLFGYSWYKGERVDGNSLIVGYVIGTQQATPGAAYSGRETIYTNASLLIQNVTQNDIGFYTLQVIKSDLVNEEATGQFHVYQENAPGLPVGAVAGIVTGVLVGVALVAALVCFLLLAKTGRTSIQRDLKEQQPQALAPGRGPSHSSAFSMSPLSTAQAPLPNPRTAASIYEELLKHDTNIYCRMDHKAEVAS
In short: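 HeLa cells stably transfected with single CEACAM family members were grown in DMEM with 10% fetal bovine serum at 37° C and 5.0% CO₂. After staining with the test antibody and then a fluorochrome-conjugated isotype-specific secondary antibody, with DAPI as the viability dye, the cells were run on a Cytoflex and the data analysed in FlowJo. Binding selectivity is reported as the staining of each transfectant.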

Binder | IC50 [1] [nM] | relative amount of cells bound [2] | relative amount of cells bound [3] | relative amount of cells bound [4] | binding result [5]
B1 | 31.9 | – | – | – | –
B2 | – | 8.81 | 78 | 0.3 | no binding
